The values that follow come from patent US20260008865A1 (TETHEREX PHARMACEUTICALS, published 2026).

For orientation: Kd means the constant that tells how readily two partners part at equilibrium. High values mean weaker binding, low ones tighter binding. By koff is commonly meant the rate constant with which the complex falls apart. Read a low koff as slow dissociation. A word on the kon: it is the second-order rate constant of association. Low values mean slower complex formation, high ones faster complex formation.

Experiment [1] deals with T1, SelSP1 (PSGL-1 sulfopeptide).
T1 construct: also called sulfopeptide modelled after the N-terminus of human PSGL-1
The experiment can be described thus: SPR (SensiQ Pioneer), about 1,000 RU SelK2 captured on Protein G, SelSP1 as analyte, 25 °C, 1:1 model. The method, then:
(§1) SensíQ Pioneer (S/N 13110154) was used for all SPR measurements at a controlled temperature of 25° C. SelK2 (Lot #14-2189) was dispensed into three 1 mL aliquots in the biosafety cabinet. Protein G was purchased from BioVision (Cat. #6510). Running buffer for Pioneer contained 10 mM HEPES pH 7.4, 150 mM NaCl, 3.4 mM EDTA and 0.005% Tween-20. All other reagents were purchased from Sigma Aldrich.
(§2) A new COOH2 biosensor was installed and conditioned according to CH0012 protocol. Protein G was immobilized via amine coupling. A mixture containing 0.1M EDC and 0.025M NHS was injected for 4 minutes over flow channel 1 (FC1) and FC2. 50 μg/mL Protein G in 10 mM Sodium acetate buffer pH 4.5 was injected for 15 minutes over FC1 and FC2. 1M Ethanolamine HCl solution pH 8.0 was injected for 5 minutes over FC1 and FC2. Approximately 1,145 response units (RU) of Protein G was coupled on FC1 and FC2 of the sensor chip. 50 nM SelK2 in system buffer was injected to capture approximately 2,000 RU SelK2 on FC1 and 1,000 RU on FC2. […] Each sample was injected for 3 min at a flow rate of 40 μL/min. Dissociation was monitored after each injection for 4 min at the same flow rate. Samples were tested in duplicate from low concentration to high.
(§3) Kinetic model fitting was performed using Qdat analysis software (SensiQ Technologies, Inc. Version 2.5.1.56). A simple 1:1 kinetic model was fit to the data to determine best fit values for association and dissociation rate constants, ka and kd. A local Rmax was fit for each curve to account for incomplete dissociation of the SelSP1 after some of the analyte injections.

Experiment [2] has the same target. The experiment can be described thus: SPR, captured SelK2, SelSP1 as analyte; value told over the two surface densities. The method, then: as §2, §3
The target is the same in experiment [3]. Kind of experiment: SPR; summary sentence in the description; target printed as PSGL-1, but the worked example used the PSGL-1 sulfopeptide SelSP1.
The target is the same in experiment [4]. The experiment can be described thus: SPR (SensiQ Pioneer), about 2,000 RU SelK2 captured on Protein G, SelSP1 as analyte, 25 °C, 1:1 model. The method, then: as §1, §2, §3

B1: SelK2 (antibody, human IgG2, kappa, V domains shown)
VH: QVQLVESGGGVVQPGRSLRLSCAASGFTFSSFGMHWVRQAPGKGLEWVAYISSASSTIYYADTVKGRFTISRDNSKNTLYLQMNSLRAEDTAVYYCASSYGYWGQGTLVTVSS
VL: DIVMTQTPLSLPVTPGEPASISCRSSRSLVHSNGNTYLHWYLQKPGQSPQLLIYKVSNRFSGVPDRFSGSGSGTDFTLKISRVEAEDVGVYYCSQTTHVPLTFGQGTRLEIKR
notes: human kappa light chain; also called SelK2 antibody; humanised anti-PSGL-1 antibody
In experiment [1], B1 displayed a Kd of 4.27 nM, a dissociation rate constant (koff) of 0.00232 s⁻¹ and a kon of 544000 M⁻¹ s⁻¹. The molecule further registered a dissociation constant (Kd) in experiment [2] of 4.28 nM. For the same molecule, the “fold increase in affinity against the parental antibody” value in experiment [3] is around 4 fold. Also, in experiment [4], the dissociation constant Kd turned out to be 4.29 nM, the off-rate (koff) stood at 0.00218 s⁻¹ and the kon turned out to be 508000 M⁻¹ s⁻¹.
